To fix the notation:
B1: β-arrestin P-long peptide (peptide)
peptide: DDDIVFEDFARQRLKGMKDD
notes: peptide from the C-terminus of β-arrestin; also called β-arrestin peptide; arrestin peptide; source: synthetic peptide, bought: Institute of Biomolecular Sciences (University of Southampton)
B2: 6× His human Eps15-MD (530–791) (domain or fragment, UniProt P42566 530-791, looked up)
chain: STSSSETANLNEHVEGQSNLESEPIHQESPARSSPELLPSGVTDENEVTTAVTEKVCSELDNNRHSKEEDPFNVDSSSLTGPVADTNLDFFQSDPFVGSDPFKDDPFGKIDPFGGDPFKGSDPFASDCFFRQSTDPFATSSTDPFSAANNSSITSVETLKHNDPFAPGGTVVAASDSATDPFASVFGNESFGGGFADFSTLSKVNNEDPFRSATSSSVSNVVITKNVFEETSVKSEDEPPALPPKIGTPTRPCPLPPGKRSI
notes: Eps15 motif domain, human, residues 530-791 (STSSSE…GKRSI); The His-tagged form is named for SPR; also called 6× His hEps15-MD; motif domain of Eps15; source: recombinant (pET28c), purified
B3: Eps15 P-short peptide (peptide)
peptide: SFGDGFADFSTL
notes: peptide from Eps15; also called Eps15 peptide; source: synthetic peptide, bought: Institute of Biomolecular Sciences (University of Southampton)
B4: human β2-appendage (700–937) used for ITC (domain or fragment, UniProt P63010 700-937, looked up)
chain: IGMAPGGYVAPKAVWLPAVKAKGLEISGTFTHRQGHIYMEMNFTNKALQHMTDFAIQFNKNSFGVIPSTPLAIHTPLMPNQSIDVSLPLNTLGPVMKMEPLNNLQVAVKNNIDVFYFSCLIPLNVLFVEDGKMERQVFLATWKDIPNENELQFQIKECHLNADTVSSKLQNNNVYTIAKRNVEGQDMLYQSLKLTNGIWILAELRIQPGNPNYTLSLKCRAPEVSQYIYQVYDSILKN
notes: AP2 β2-adaptin appendage domain, human, residues 700-937; also called wild-type β2-appendage; β-appendage

Common to all, as to assay: ITC; VP-ITC; 100 mM HEPES, 50 mM NaCl, 2 mM DTT pH 7.4 at 10 °C; peptides or proteins injected from the syringe into the cell
Holding throughout (conditions): both partners purified
For orientation: Isothermal titration calorimetry measures the heat released or taken up as one component is titrated into another.

Assay [1] has as its target T1, human β2-appendage (700–937) R879A used for ITC (human, UniProt P63010 700-937, R879A).
T1 construct: AP2 β2-adaptin appendage domain, human, residues 700-937; also called R879A mutant of the β-appendage
T1 sequence (looked up): B4 chain with R180A

For assay [2], the target named is B4.
The target of assay [3] is B2.

Numbering of substitutions follows the chain as printed.

As a reminder, the Kd is the equilibrium constant for the complex coming apart. A lower Kd goes with higher affinity. For B1, in assay [1], the “fold stronger than with the wild-type appendage” value was determined as 10 fold. In assay [2], this molecule registered a Kd of around 2 µM. Broadly, the stoichiometry N is a count of units in the complex or per binding partner. Consider B2, for which, in assay [2], the “stoichiometry N” value is 2. Consider B3, for which, in assay [2], binding was put at a Kd of 46 µM. Regarding B4, the Kd in assay [3] is around 20 µM.

Values taken from article PMC1540706, “Role of the AP2 β-Appendage Hub in Recruiting Partners for Clathrin-Coated Vesicle Assembly” (PLoS Biology, 2006).
